Target: Endogenous SHP-1 (human (endogenous in YTS), UniProt P29350 1-595)
Experiment: co-IP

Sequence of Endogenous SHP-1 (P29350 whole entry): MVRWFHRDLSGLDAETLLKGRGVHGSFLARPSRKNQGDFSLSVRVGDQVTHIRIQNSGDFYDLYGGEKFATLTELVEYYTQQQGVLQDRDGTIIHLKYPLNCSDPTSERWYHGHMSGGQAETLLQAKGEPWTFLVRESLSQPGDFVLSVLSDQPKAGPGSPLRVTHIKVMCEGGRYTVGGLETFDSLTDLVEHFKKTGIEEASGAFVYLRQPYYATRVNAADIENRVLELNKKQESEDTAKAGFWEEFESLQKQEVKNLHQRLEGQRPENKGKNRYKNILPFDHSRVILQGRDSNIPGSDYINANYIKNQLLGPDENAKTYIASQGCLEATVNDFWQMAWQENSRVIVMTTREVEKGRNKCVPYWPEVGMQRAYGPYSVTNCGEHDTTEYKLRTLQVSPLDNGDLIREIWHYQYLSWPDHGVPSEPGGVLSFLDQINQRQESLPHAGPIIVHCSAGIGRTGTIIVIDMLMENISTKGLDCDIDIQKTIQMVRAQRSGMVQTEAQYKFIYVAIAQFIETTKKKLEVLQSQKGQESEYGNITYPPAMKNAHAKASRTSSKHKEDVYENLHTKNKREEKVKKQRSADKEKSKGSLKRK

B1: KIR2DL1 H36A mutant tagged with Venus at the C-terminus (receptor, UniProt P43626 22-348, looked up)
chain: HEGVHRKPSLLAHPGRLVKSEETVILQCWSDVMFEAFLLHREGMFNDTLRLIGEHHDGVSKANFSISRMTQDLAGTYRCYGSVTHSPYQVSAPSDPLDIVIIGLYEKPSLSAQLGPTVLAGENVTLSCSSRSSYDMYHLSREGEAHERRLPAGPKVNGTFQADFPLGPATHGGTYRCFGSFHDSPYEWSKSSDPLLVSVTGNPSNSWPSPTEPSSKTGNPRHLHILIGTSVVIILFILLFFLLHRWCSNKKNAAVMDQESAGNRTANSEDSDEQDPQEVTYTQLNHCVFTQRKITRPSQRPKTPPTDIIVYTELPNAESRSKVVSCP
How did the “fold association against 2DL1-WT” value turn out when B1 was run?
The value was ~4 fold.

Reference: publication PMC4282981 (Journal of immunology (Baltimore, Md. : 1950), 2014)
